# US20240324599A1, “PESTICIDAL ENZYMES FOR USE ON NEMATODES, INSECTS, AND MOLLUSKS” (priority 2023, published 2024)
# Assays:
# Type in all cases: in vivo
# [1] = system: Diamondback moth (Plutella xylostella); experiment: Diet-surface overlay (DSO) bioassay; conditions: Table 41, individuals of n = 16 after 7 days
# Experimental: (§1) Diet-surface overlay bioassays are conducted with artificial diet mixes without antibiotics in 1.5 cm^2 cell bioassay trays(s). Artificial diets are commercially available from Southland Products Inc. Diets were prepared by dispersing 0.5 mL of molten diet to each 1.5 cm^2 cell. After solidification, 0.1 mL enzyme treatments were dispersed on top of diet in each cell and the tray was gently rocked in an orbital shaker to spread the liquid uniformly over the diet surface. Trays were placed under clean airflow until the surface of each cell was uniformly dried. One or two 16-cell sections were used per treatment (the number in larvae treated was 16 or 32).
# (§2) One healthy first instar larva was placed into each treatment cell, each 16-cell section was covered with a re-sealable lid and incubated at 27° C. and light-dark period of 16:8 hrs. After 7 days, and according to the species, the number of individuals in the following developmental categories was recorded.
# (§3) Diamondback moth (Plutella xylostella): Dead Larva (lack of movement), Larva Stage I (≤50% relative size), Larva Stage II (100% relative size, full size), Early Pupa (light green color), Late Pupa (light-dark brown color), and Adult.
# (§4) Negative/untreated controls were treated with filtered water and positive controls were treated with lethal doses of Bacillus thuringiensis subsp. Kurstaki (Btk) spores at 1000 ppm.
# [2] = system: Btk resistant Diamondback moth; experiment: Diet-surface overlay (DSO) bioassay
# Experimental: as §1, §2, §3, §4
# However, both neutral proteases reduced the number of individuals reaching adult stage.
# [3] = system: Fall armyworm (Spodoptera frugiperda); experiment: Diet-surface overlay (DSO) bioassay
# Experimental: as §1, §2, §4
# [4] = system: Black gloss snails (Zonitoides nitidus); experiment: Antifeedant and molluscicide bioassay (artificial diet): consumption, survival, weight gain; conditions: Table 63; n = 12, 7 days; control diet 2.50
# Experimental: Two-week old garden snails (Cornu aspersum) and full-size black gloss snails (Zonitoides nitidus) were maintained in a semi-darkened tank at 68-70° F. at high humidity, provided with a wet sponge in a petri dish. Snails were transferred to fresh tank every 2-3 days, and they were feed ad libitum with cucumber slices supplemented with calcium carbonate tablets. Individuals were reared in the laboratory for at least a week to fully acclimate to laboratory conditions prior to testing. The individuals ranged between 3 weeks to 2 months old at the time of bioassay.
# Filter-sterilized recombinant enzymes including proteases and lipases were prepared as indicated in Example 25. Corresponding controls (e.g., buffer, fermentation of non-recombinant strain, water) were be prepared accordingly. […]
# 12 snails were randomly assigned to each treatment, labeled with permanent marker on the top of the shell for identification, and their weight (mg) was recorded before treatment. […] At the time of treatment replacement, treatment consumption, weight, and mortality were recorded.
# Alkaline Protease and Keratinase and Lipases from Pseudomonas fluorescens (Pf,), were prepared as described above and their antifeedant and molluscicidal effects were tested. […] The units (U) of enzyme activity was determined as the amount of enzyme required to breakdown 1 μM of substrate per minute. […]
# [5] = Table 42, Btk resistant, n = 32, doses as E69, water 0
# [6] = Table 43, n = 32, Keratinase 260 U/mL diet, water 0
molecule,measurement,setting,value
"Keratinase: protease resuspended in water at 0.25 g/mL (protein, listed as Bacillus licheniformis, Protease _ keratinase, protease resuspended in water at 0.25 g/mL) MMRKKSFWLGMLTAFMLVFTMAFSDSASAAQPAKNVEKDYIVGFKSGVKTASVKKDIIKESGGKVDKQFRIINAAKAKLDKEALKEVKNDPDVAYVEEDHVAHALAQTVPYGIPLIKADKVQAQGFKGANVKVAVLDTGIQASHPDLNVVGGASFVAGEAYNTDGNGHGTHVAGTVAALDNTTGVLGVAPSVSLYAVKVLNSSGSGSYSGIVSGIEWATTNGMDVINMSLGGASGSTAMKQAVDNAYARGVVVVAAAGNSGSSGNTNTIGYPAKYDSVIAVGAVDSNSNRASFSSVGAELEVMAPGAGVYSTYPTNTYATLNGTSMVSPHVAGAAALILSKHPNLSASQVRNRLSSTATYLGSSFYYGKGLINVEAAAQ",Dead Larva,"[1]; U/mL diet: SEQ 127 0.206, Acid 2.5, Alkaline 190, Neutral 20, Keratinase 26, Btk spores 1000 ppm, water 0",1
same,Larva Stage I,"[1]; doses as E63, water 0",0
same,Larva Stage II,"[1]; doses as E63, water 0",0
same,Early Pupa,"[1]; doses as E63, water 3",11
same,Late Pupa,"[1]; doses as E63, water 3",4
same,Adult,"[1]; doses as E63, water 10",0
same,Dead Larva,"[2]; Table 42, Btk resistant strain, individuals of n = 32 after 7 days, U/mL diet: SEQ 127 2, Neutral 200, Keratinase 260, water 1",19
same,Larva Stage I,[2]; [5],11
same,Larva Stage II,[2]; [5],2
same,Early Pupa,"[2]; Table 42, Btk resistant, n = 32, doses as E69, water 1",0
same,Adult,"[2]; Table 42, Btk resistant, n = 32, doses as E69, water 8",0
same,Late Pupa,"[2]; Table 42, Btk resistant, n = 32, doses as E69, water 22",0
same,mortality,"[2]; text to Table 42, 10× higher protease activity rate",more than 50%
same,"effect on Btk resistant Diamondback moth larvae, in words","[2]; text to Tables 42, 45, 47",strong stunting of survival larvae
same,Dead Larva,"[3]; Table 43, individuals of n = 32 after 7 days, Keratinase 260 U/mL diet, water 2",32
same,Larva Stage I,[3]; [6],0
same,Larva Stage II,[3]; [6],0
same,Larva Stage III,[3]; [6],0
same,Larva Stage IV,"[3]; Table 43, n = 32, Keratinase 260 U/mL diet, water 30",0
same,"effect on Fall armyworm larvae, in words","[3]; text to Tables 43, 46, 48, 50",lethal
same,Diet consumption,[4],0.70 g
